Where two headings read alike, the source gives them in different places.
Legend:
NL1 [1] = biological target: T1, NL1 (Mus musculus, UniProt Q9JLI3); test: NL-1 enzymatic activity assay with (Tyrosyl-[3,5-3H])(D-Ala2)-Leu5-enkephalin as substrate; type: biochemical; parameters: The soluble form of NL-1 was assayed for activity; made in house; host or cells: CHO cells (section 1, pcDNA3-RSV) and HEK 293 cells (section 2, pCDNA3/RSV); conditions: inhibition of NL-1 degradation of the enkephalin substrate
T1 sequence (Q9JLI3 63-765 limits assumed): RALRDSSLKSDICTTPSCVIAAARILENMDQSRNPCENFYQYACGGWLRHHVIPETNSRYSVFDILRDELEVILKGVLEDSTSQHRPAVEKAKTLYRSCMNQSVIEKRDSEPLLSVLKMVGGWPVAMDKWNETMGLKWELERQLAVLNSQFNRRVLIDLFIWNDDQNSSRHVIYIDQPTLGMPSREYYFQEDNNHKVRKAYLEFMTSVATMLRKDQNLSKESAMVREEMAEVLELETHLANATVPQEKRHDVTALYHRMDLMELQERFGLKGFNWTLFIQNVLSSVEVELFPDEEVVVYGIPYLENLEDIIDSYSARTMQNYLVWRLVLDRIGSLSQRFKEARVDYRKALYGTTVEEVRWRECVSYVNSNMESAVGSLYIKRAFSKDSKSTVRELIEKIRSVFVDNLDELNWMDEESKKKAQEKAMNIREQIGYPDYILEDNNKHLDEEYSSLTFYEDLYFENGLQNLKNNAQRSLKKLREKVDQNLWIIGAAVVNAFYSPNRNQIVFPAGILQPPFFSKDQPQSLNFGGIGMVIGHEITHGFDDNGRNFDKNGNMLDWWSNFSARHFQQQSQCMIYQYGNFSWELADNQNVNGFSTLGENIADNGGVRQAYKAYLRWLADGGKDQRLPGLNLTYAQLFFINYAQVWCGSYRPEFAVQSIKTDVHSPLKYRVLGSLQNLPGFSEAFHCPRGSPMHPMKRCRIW
Description: Extracts of cellular proteins and culture media were assayed for enzymatic activity. Two tests were performed. The first used [^3H]-Tyr-(D)Ala2-Leu-enkephalin as substrate and was performed according to Lemay et al., (1989). The second used bradykinin as substrate and was performed as described by Raut et al. (1999).
NL1 activity was monitored and compared to sNEP activity using (Tyrosyl-[3,5-^3H])(D-Ala2)-Leu5-enkephalin (50 Ci/mmol) (Research Products International Inc.), as already described (Dion 1995; Devault 1988). Km values were determined by the isotope-dilution method.

sNEP = biological target: T2, sNEP (Oryctolagus cuniculus, UniProt P08049); test: HPLC analysis of the hydrolysis of Leu-enkephalin by sNEP; type: biochemical; conditions: phosphoramidon 1 μM, Leu5-enkephalin, RP-HPLC
T2 construct: Fusion of a cleavable signal peptide to the ectodomain of neutral endopeptidase; cleavable signal peptide of proopiomelanocortin (replaces cytosolic and transmembrane domains) (N, cleaved yes); made in house; host or cells: LLC-PK1 cells transfected with pRcCMV-sNEP; concentrated culture medium
T2 sequence (P08049 52-750 limits assumed): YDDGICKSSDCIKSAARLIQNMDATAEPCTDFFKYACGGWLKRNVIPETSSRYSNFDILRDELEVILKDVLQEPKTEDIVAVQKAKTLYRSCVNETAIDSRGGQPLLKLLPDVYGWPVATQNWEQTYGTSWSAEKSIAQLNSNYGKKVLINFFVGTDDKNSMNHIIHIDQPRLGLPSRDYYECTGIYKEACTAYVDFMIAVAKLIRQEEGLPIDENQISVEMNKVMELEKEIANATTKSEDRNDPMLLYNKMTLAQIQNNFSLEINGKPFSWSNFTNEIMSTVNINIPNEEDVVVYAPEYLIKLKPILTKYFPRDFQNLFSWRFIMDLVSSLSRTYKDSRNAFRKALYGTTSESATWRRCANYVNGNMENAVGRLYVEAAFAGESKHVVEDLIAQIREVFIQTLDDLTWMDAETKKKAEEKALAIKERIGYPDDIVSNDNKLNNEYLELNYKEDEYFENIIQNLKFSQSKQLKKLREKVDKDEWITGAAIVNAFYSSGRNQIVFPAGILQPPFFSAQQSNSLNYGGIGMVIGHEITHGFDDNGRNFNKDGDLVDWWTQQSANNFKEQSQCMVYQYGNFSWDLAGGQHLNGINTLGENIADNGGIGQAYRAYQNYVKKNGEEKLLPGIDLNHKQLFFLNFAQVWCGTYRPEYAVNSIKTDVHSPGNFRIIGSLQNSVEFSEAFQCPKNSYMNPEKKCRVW
Excerpt: (§1) Hydrolysis products were separated by reversed-phase HPLC as described previously.

NL1 [2] = biological target: T1, NL1; test: HPLC analysis of the hydrolysis of Leu-enkephalin by NL1; type: biochemical; parameters: The soluble form of NL-1 was assayed for activity; made in house; host or cells: HEK 293 cells (section 2, pCDNA3/RSV); conditions: phosphoramidon 1 μM; Leu5-enkephalin; NL1 from medium of HEK/NL1 cells; RP-HPLC
Excerpt: as §1

[3] = biological target: T3, sNEP (engineered soluble form of NEP) (Oryctolagus cuniculus, UniProt P08049); test: sNEP enzymatic activity assay with (Tyrosyl-[3,5-3H])(D-Ala2)-Leu5-enkephalin as substrate; type: biochemical; conditions: inhibition of sNEP/NEP activity
T3 construct: Fusion of a cleavable signal peptide to the ectodomain of neutral endopeptidase; cleavable signal peptide of proopiomelanocortin (replaces cytosolic and transmembrane domains) (N, cleaved yes); made in house; host or cells: LLC-PK1 cells transfected with pRcCMV-sNEP; concentrated culture medium
T3 sequence (P08049 52-750 limits assumed): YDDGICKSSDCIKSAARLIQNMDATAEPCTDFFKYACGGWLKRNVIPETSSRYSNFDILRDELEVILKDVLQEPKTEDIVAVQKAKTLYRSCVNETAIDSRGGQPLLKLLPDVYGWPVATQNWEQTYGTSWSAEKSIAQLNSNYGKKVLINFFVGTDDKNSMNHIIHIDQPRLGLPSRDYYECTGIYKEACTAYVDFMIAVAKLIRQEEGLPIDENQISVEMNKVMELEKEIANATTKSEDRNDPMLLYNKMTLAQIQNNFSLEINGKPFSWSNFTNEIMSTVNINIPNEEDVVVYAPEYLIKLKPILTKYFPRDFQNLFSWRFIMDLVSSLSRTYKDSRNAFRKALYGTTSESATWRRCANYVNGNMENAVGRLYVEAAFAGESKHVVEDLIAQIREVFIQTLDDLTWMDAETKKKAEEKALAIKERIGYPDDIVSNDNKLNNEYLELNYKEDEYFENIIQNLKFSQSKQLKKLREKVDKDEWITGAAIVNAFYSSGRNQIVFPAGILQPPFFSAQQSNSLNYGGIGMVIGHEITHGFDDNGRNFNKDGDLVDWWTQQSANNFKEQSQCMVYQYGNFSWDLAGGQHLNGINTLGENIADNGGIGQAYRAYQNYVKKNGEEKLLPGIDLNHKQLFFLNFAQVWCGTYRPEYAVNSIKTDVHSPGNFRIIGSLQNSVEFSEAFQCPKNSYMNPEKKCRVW

Leu5-enkephalin [4] = test system: T4, Leu5-enkephalin
T4 sequence: YGGFL

[5] = test system: T5, (Tyrosyl-[3,5-3H])(D-Ala2)-Leu5-enkephalin
T5 sequence: YAGFL

[6] = test system: NL1 secretion (subtilisin-like convertase processing) in HEK 293 cells; test: Immunoblot of culture media of HEK 293 cells co-expressing NL1 and α1-PDX; type: cell-based, Human; conditions: transient co-transfection, increasing amounts of α1-PDX plasmid; related to the amount
Description: Human Embryonic Kidney (HEK 293) cells were maintained in DMEM medium containing 10% fetal bovine serum (FBS), and supplemented with penicillin at 60 μg/ml, streptomycin at 100 μg/ml and fongizone at 0.25 μg/ml. Transfections of cells with appropriate plasmids were performed by the calcium/phosphate-DNA co-precipitation method (Chang 1987).
For immunoblot analysis, cells were incubated for 16 h in synthetic DMEM medium containing 2 mM sodium butyrate. Cellular proteins were solubilized as previously described (Dion 1995). Secreted proteins recovered in culture media were concentrated approximately 10 fold by ultrafiltration. Immunoblot analysis were performed using the NEN Renaissance kit with the polyclonal antibody specific to NL1 or the α1-antitrypsin inhibitor antibody (Calbiochem; LaJolla, Calif.) followed by the appropriate horseradish peroxidase-conjugated IgG (Vector Laboratories).
To determine whether a member of the mammalian subtilisine-like convertase family is responsible for NL1 presence in the culture medium of transfected cells, we co-transfected transiently HEK 293 cells with a constant amount of plasmid pCDNA3/RSV/NL1 and increasing amounts of plasmid pCDNA3/CMV/PDX (Benjannet 1997). This latter vector promotes the expression of the α1-antitrypsin Portland variant, α1-PDX, a known inhibitor of subtilisin-like convertases (Anderson 1993).

Leu5-enkephalin [7] = biological target: T6, Leu5-enkephalin
T6 chain: YGGFL

[8] = biological target: T7, (Tyrosyl-[3,5-3H])(D-Ala2)-Leu5-enkephalin
T7 chain: YAGFL

bradykinin, P01042, sequence (P01042 whole entry, looked up): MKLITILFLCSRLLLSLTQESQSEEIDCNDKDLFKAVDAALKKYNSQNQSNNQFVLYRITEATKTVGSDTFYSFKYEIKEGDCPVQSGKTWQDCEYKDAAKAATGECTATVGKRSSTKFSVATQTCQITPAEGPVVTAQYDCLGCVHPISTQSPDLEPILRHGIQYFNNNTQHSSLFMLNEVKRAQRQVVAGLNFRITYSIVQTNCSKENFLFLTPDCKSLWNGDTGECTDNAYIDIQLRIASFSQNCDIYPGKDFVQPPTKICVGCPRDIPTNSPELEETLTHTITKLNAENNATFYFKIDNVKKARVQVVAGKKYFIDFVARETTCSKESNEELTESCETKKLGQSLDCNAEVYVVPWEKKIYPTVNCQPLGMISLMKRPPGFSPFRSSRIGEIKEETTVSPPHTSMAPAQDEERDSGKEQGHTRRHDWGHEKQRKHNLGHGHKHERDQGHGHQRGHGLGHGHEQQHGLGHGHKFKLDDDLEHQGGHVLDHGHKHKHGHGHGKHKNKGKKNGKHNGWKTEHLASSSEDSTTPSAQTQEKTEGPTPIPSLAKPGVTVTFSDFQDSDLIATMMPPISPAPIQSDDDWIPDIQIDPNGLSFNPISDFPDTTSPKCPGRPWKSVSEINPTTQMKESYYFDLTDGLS

O=C(O)CNC(=O)C(CS)Cc1ccccc1 (centres unmarked) [thiorphan]
IC50 (NL1 [1]): 47 nM

CC(C)C[C@H](NP(=O)(O)O[C@@H]1O[C@@H](C)[C@H](O)[C@@H](O)[C@H]1O)C(=O)N[C@@H](Cc1c[nH]c2ccccc12)C(=O)O [phosphoramidon]
IC50 (NL1 [1]): 0.9 nM
inhibition of enkephalin-degrading activity (sNEP): completely inhibited
inhibition of enkephalin-degrading activity (NL1 [2]): completely inhibited
IC50 [3]: 0.5 nM

engineered soluble form of NEP (sNEP)
cleavage products by RP-HPLC (Leu5-enkephalin [4]): both enzymes cleaved the substrate at the Gly3-Phe4 peptide bond
Km [5]: Km values of 18 µM and 73 µM, respectively

α1-PDX: α1-antitrypsin Portland variant, a known inhibitor of subtilisin-like convertases, expressed from plasmid pCDNA3/CMV/PDX
effect on NL1 secretion [6]: strongly inhibited

B1: soluble NL-1 (secreted form of mouse NL-1 recovered from culture medium) (protein)
chain: GKQLPLLTSLLHFSWDERTVVKRALRDSSLKSDICTTPSCVIAAARILENMDQSRNPCENFYQYACGGWLRHHVIPETNSRYSVFDILRDELEVILKGVLEDSTSQHRPAVEKAKTLYRSCMNQSVIEKRDSEPLLSVLKMVGGWPVAMDKWNETMGLKWELERQLAVLNSQFNRRVLIDLFIWNDDQNSSRHVIYIDQPTLGMPSREYYFQEDNNHKVRKAYLEFMTSVATMLRKDQNLSKESAMVREEMAEVLELETHLANATVPQEKRHDVTALYHRMDLMELQERFGLKGFNWTLFIQNVLSSVEVELFPDEEVVVYGIPYLENLEDIIDSYSARTMQNYLVWRLVLDRIGSLSQRFKEARVDYRKALYGTTVEEVRWRECVSYVNSNMESAVGSLYIKRAFSKDSKSTVRELIEKIRSVFVDNLDELNWMDEESKKKAQEKAMNIREQIGYPDYILEDNNKHLDEEYSSLTFYEDLYFENGLQNLKNNAQRSLKKLREKVDQNLWIIGAAVVNAFYSPNRNQIVFPAGILQPPFFSKDQPQSLNFGGIGMVIGHEITHGFDDNGRNFDKNGNMLDWWSNFSARHFQQQSQCMIYQYGNFSWELADNQNVNGFSTLGENIADNGGVRQAYKAYLRWLADGGKDQRLPGLNLTYAQLFFINYAQVWCGSYRPEFAVQSIKTDVHSPLKYRVLGSLQNLPGFSEAFHCPRGSPMHPMKRCRIW
substrate degradation (bradykinin, P01042): Bradykinin is also a substrate for NL-1 (not shown)
cleavage products by RP-HPLC (Leu5-enkephalin [7]): both enzymes cleaved the substrate at the Gly3-Phe4 peptide bond
Km [8]: Km values of 18 µM and 73 µM, respectively
Km (degradation of the enkephalin substrate) [8]: Km=18±10 µM
enzymatic activity in culture medium [8]: Activity was detected in the culture medium of HEK/NL1 cells but not in that of HEK 293 cells

B2: soluble form of NL-3 (NL-3 ectodomain secreted by means of the NL-1 amino-terminal domain) (protein)
chain: KYLGPVAAGGGACPEGCPERKAFARAARFLAANLDASIDPCQDFYSFACGGWLRRHAIPDDKLTYGTIAAIGEQNEERLRRLLARPGGGPGGAAQRKVRAFFRSCLDMREIERLGPRPMLEVIEDCGGWDLGGAEERPGVAARWDLNRLLYKAQGVYSAAALFSLTVSLDDRNSSRYVIRIDQDGLTLPERTLYLAQDEDSEKVLAAYRVFMERVLSLLGADAVEQKAQEILQVEQQLANITVSEYDDLRRDVSSMYNKVTLGQLQKITPHLRWKWLLDQIFQEDFSEEEEVVLLATDYMQQVSQLIRSTPHRVLHNYLVWRVVVVLSEHLSPPFREALHELAQEMEGSDKPQELARVCLGQANRHFGMALGALFVHEHFSAASKAKVQQLVEDIKYILGQRLEELDWMDAETRAAARAKLQYMMVMVGYPDFLLKPDAVDKEYEFEVHEKTYFKNILNSIRFSIQLSVKKIRQEVDKSTWLLPPQALNAYYLPNKNQMVFPAGILQPTLYDPDFPQSLNYGGIGTIIGHELTHGYDDWGGQYDRSGNLLHWWTEASYSRFLRKAECIVRLYDNFTVYNQRVNGKHTLGENIADMGGLKLAYHAYQKWVREHGPEHPLPRLKYTHDQLFFIAFAQNWCIKRRSQSIYLQVLTDKHAPEHYRVLGSVSQFEEFGRVLHCPKVSPMNPAHKCSVW
enzymatic activity [8]: No activity was found.
